The record followed here is patent US20250136677A1 (ZOETIS SERVICES, published 2025).

Residue numbers refer to the chain shown, from its start. In names and notes the source's numbering stands.

The chains are these.
T1: wildtype feline IL-31 protein (Feline_IL31_wildtype) (feline)
T1 construct: Full length feline IL-31 with C-terminal His tag, secreted from ExpiCHO cells; also called fIL-31
T1 chain: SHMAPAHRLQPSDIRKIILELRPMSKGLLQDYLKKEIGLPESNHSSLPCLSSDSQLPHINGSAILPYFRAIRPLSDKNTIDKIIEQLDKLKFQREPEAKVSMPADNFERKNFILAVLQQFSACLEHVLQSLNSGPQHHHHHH

T2: canine IL-31 protein (Canine_IL31) (canine)
T2 chain: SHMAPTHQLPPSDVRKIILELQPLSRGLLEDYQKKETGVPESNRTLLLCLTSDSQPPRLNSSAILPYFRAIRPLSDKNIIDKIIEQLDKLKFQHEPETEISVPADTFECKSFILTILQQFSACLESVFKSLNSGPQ

B1: Feline 15H05 1.1 FW2 (antibody, V domains shown)
VH: QVLLVQSGAEVRTPGASVKIFCKASGYSFTSYTIHWLRQAPAQGLEWMGNINPTSGYTENNQRFKDRLTLTADTSTNTAYMELSSLRSADTAMYYCARWGFKYDGEWSFDVWGAGTTVTVSS
VL: EIQMTQSPSSLSASPGDRVTITCRASQGISIWLSWYQQKPGNIPKVLINKASNLHIGVPSRFSGSGSGTDFTLTISSLEPEDAATYYCLQSQTYPLTFGGGTKLEIK
notes: also called felinized 15H05 1.1 FW2
B2: Feline 15H05 VH2 mouse VL (antibody, V domains shown)
VH: B1 VH with S28G, L37V, A40S
VL: DIQMNQSPSSLSASLGDTITVTCRASQGISIWLSWYQQKPGNIPKVLINKASNLHIGVPPRFSGSGSGTHFTLTITSLQPEDIATYYCLQSQTYPLTFGGGTKLEIN
notes: also called felinized 15H05 VH2 with mouse 15H05 VL (heterochimera)
B3: Feline 15H05 1.1 FW1_3 (antibody, V domains shown)
VH: B1 VH
VL: B2 VL with N42K, I43V, V46L, N49Y, N107K
notes: Printed as 'Feline 15H05 1.1 FW13'
B4: Feline 15H05 VH3 mouse VL (antibody, V domains shown)
VH: B1 VH with T13K, A42E
VL: B2 VL
notes: Heterochimeric antibody; also called felinized 15H05 VH3 with mouse 15H05 VL (heterochimera)
B5: Feline 15H05 2.1 (antibody, V domains shown)
VH: B1 VH with S28G, L37V, A40S
VL: B1 VL with N42K, I43V, V46L, N49Y
notes: Feline heavy and kappa constant regions
B6: Feline 15H05 1.1 K42N_V43I (antibody, V domains shown)
VH: B1 VH
VL: B1 VL with V46L, N49Y
B7: Feline 15H05 1.1 Y49N (antibody, V domains shown)
VH: B1 VH
VL: B1 VL with N42K, I43V, V46L
B8: Feline 15H05 3.1 (antibody, V domains shown)
VH: B1 VH with T13K, A42E
VL: B1 VL with N42K, I43V, V46L, N49Y
notes: as for B5
B9: Feline 15H05 1.1 FW3 (antibody, V domains shown)
VH: B1 VH
VL: B1 VL with N42K, I43V, V46L, N49Y, S60P, D70H, S76T, E79Q, A83I
B10: Feline 15H05 VH1 mouse VL (antibody, V domains shown)
VH: B1 VH
VL: B2 VL
notes: Heterochimeric antibody; also called felinized 15H05 VH1 with mouse 15H05 VL (heterochimera)
B11: Feline 15H05 1.1 FW1_2 (antibody, V domains shown)
VH: B1 VH
VL: B2 VL with P60S, H70D, T76S, Q79E, I83A, N107K
B12: Feline 15H05 1.1 (antibody, V domains shown)
VH: B1 VH
VL: B1 VL with N42K, I43V, V46L, N49Y
notes: as for B5
B13: Feline 15H05 2.3 (antibody, V domains shown)
VH: B1 VH with S28G, L37V, A40S
VL: EVVLTQSSAFLSRTLKEKATITCRASQGISIWLSWYQQKPNQAPKLLVKKASNLHIGAPSRFSGSGSGTDFTLTISSPEPEDAATYYCLQSQTYPLTFGGGTKLGDQ
notes: as for B5
B14: Feline 15H05 1.1 V43I (antibody, V domains shown)
VH: B1 VH
VL: B1 VL with N42K, V46L, N49Y
B15: Feline 15H05 1.1 FW1 (antibody, V domains shown)
VH: B1 VH
VL: B2 VL with N42K, I43V, V46L, N49Y, P60S, H70D, T76S, Q79E, I83A, N107K
B16: Feline 15H05 1.1 L46V (antibody, V domains shown)
VH: B1 VH
VL: B1 VL with N42K, I43V, N49Y
B17: Feline 15H05 3.3 (antibody, V domains shown)
VH: B1 VH with T13K, A42E
VL: B13 VL
notes: as for B5
B18: Feline 15H05 1.1 FW2_3 (antibody, V domains shown)
VH: B1 VH
VL: B1 VL with S60P, D70H, S76T, E79Q, A83I
B19: Feline 15H05 1.1 K42N (antibody, V domains shown)
VH: B1 VH
VL: B1 VL with I43V, V46L, N49Y

The target of the first assay is T1, wildtype feline IL-31 protein …. Kind of assay: SPR (Biacore), IL-31 on chip, 1:1 fit. The procedure: The affinity with which candidate mAbs bind canine and feline IL-31 was determined using surface plasmon resonance (SPR) on a Biacore system (Biocore Life Sciences (GE Healthcare), Uppsala, Sweden). To avoid affinity differences associated with differential surface preparation that can occur when immobilizing antibodies to surfaces; a strategy was employed where IL-31 was directly conjugated to the surface. Immobilization was obtained by amine coupling 5 μg/mL IL-31 using N-hydroxysuccinimide (NHS)/1-Ethyl-3-(3-dimethylaminopropyl) carbodiimide (EDC) chemistry. Chips were quenched with ethanolamine and the affinity with which all candidate mAbs bound to the immobilized IL-31 was evaluated. All curves were fit to a 1:1 model. […] Results for affinity measurements are described herein.
In general terms: Surface plasmon resonance follows binding to a sensor surface in real time, without labels.
Consider B1, for which binding was characterised by a dissociation constant (Kd) of 0.065 nM, the koff was found to be 2.49e-05 s⁻¹ and the kon worked out at 383000 M⁻¹ s⁻¹.
With B2, the Kd was 1.61 nM, the koff came out at 5.47e-05 s⁻¹ and the kon worked out at 34000 M⁻¹ s⁻¹.
The corresponding values for B3 are 0.0674 nM, 3.02e-05 s⁻¹ and 448000 M⁻¹ s⁻¹.
Taken in the same sequence, the figures for B4 were 0.177 nM, 1.57e-05 s⁻¹ and 88900 M⁻¹ s⁻¹.
Taken in the same sequence, the figures for B5 were 22.3 nM, 0.00465 s⁻¹ and 208000 M⁻¹ s⁻¹.
B6 returned a Kd of 9.42 nM, an off-rate (koff) of 0.0022 s⁻¹ and a kon of 234000 M⁻¹ s⁻¹.
For the molecule B7, binding was characterised by a dissociation constant (Kd) of 39.5 nM, the koff turned out to be 0.00095 s⁻¹ and the kon was 24000 M⁻¹ s⁻¹.
Take B8: binding was put at a Kd of 37.1 nM, the koff worked out at 0.00166 s⁻¹ and the kon turned out to be 44700 M⁻¹ s⁻¹.
For B9, the Kd is 0.0564 nM, the koff is 1.21e-05 s⁻¹ and the on-rate (kon) is 214000 M⁻¹ s⁻¹.
Take B10: the Kd turned out to be 0.168 nM, the off-rate constant (koff) is 2.2e-05 s⁻¹ and the kon worked out at 131000 M⁻¹ s⁻¹.
Taken in the same sequence, the figures for B11 were 0.887 nM, 6.7e-06 s⁻¹ and 7560 M⁻¹ s⁻¹.
Taken in the same sequence, the figures for B12 were 13.5 nM, 0.00131 s⁻¹ and 97100 M⁻¹ s⁻¹.
In turn, B13 yielded a Kd of 1.57 nM, a koff of 0.000535 s⁻¹ and a kon of 341000 M⁻¹ s⁻¹.
Taken in the same sequence, the figures for B14 were 13.6 nM, 0.000401 s⁻¹ and 29400 M⁻¹ s⁻¹.
The corresponding values for B15 are 564 nM, 0.00286 s⁻¹ and 5060 M⁻¹ s⁻¹.
Taken in the same sequence, the figures for B16 were 22.8 nM, 0.000811 s⁻¹ and 35500 M⁻¹ s⁻¹.
Turning to B17, the Kd was found to be 11.6 nM, the koff turned out to be 0.000886 s⁻¹ and the kon turned out to be 76300 M⁻¹ s⁻¹.
Taken in the same sequence, the figures for B18 were 123 nM, 0.00116 s⁻¹ and 9490 M⁻¹ s⁻¹.
The corresponding values for B19 are 6770 nM, 0.011 s⁻¹ and 1630 M⁻¹ s⁻¹.

A further assay concerns the target T2, canine IL-31 protein (Canine_IL31). Kind of assay: SPR (Biacore), IL-31 on chip, 1:1 fit.
In the case of B1, the koff worked out at 1.66e-07 s⁻¹ and the kon is 384000 M⁻¹ s⁻¹.
Taken in the same sequence, the figures for B2 were 0.000379 s⁻¹ and 171000 M⁻¹ s⁻¹.
The corresponding values for B3 are 2.88e-08 s⁻¹ and 6590 M⁻¹ s⁻¹.
The corresponding values for B4 are 2.64e-07 s⁻¹ and 100000 M⁻¹ s⁻¹.
Molecule B5 yielded a koff of 0.000866 s⁻¹ and a kon of 525000 M⁻¹ s⁻¹.
Taken in the same sequence, the figures for B8 were 2.11e-05 s⁻¹ and 26500 M⁻¹ s⁻¹.
Molecule B9 had a Kd of 0.13 nM, a dissociation rate constant (koff) of 3.91e-07 s⁻¹ and a kon of 3000 M⁻¹ s⁻¹.
Consider B10, for which the dissociation rate constant (koff) came out at 2.66e-07 s⁻¹ and the kon turned out to be 108000 M⁻¹ s⁻¹.
Taken in the same sequence, the figures for B11 were 3.82e-06 s⁻¹ and 6910 M⁻¹ s⁻¹.
The corresponding values for B12 are 1.36e-07 s⁻¹ and 27000 M⁻¹ s⁻¹.
The corresponding values for B15 are 0.0156 s⁻¹ and 19200 M⁻¹ s⁻¹.
B18 gave a koff of 0.00193 s⁻¹ and a kon of 9050 M⁻¹ s⁻¹.

As usually defined, the Kd is the equilibrium constant for the complex coming apart. The low end stands for tighter binding, the high end for weaker binding. As a reminder, the koff is a measure of how fast the partners let go of each other. A lower koff goes with a long-lived complex. What is called kon is a measure of how fast the partners come together. Low values mean slower complex formation, high ones faster complex formation.
